# From patent publication US20130230532A1 (HONG KONG UNIVERSITY OF SCIENCE AND TECHNOLOGY, published 2013)
# B1: FLAG-tagged MMG8 fragment 390-1116 (other)
# chain: HETTITQQSVSDSHLAELQEKIQQTEATNKILQEKLNEMSYELKCAQESSQKQDGTIQNLKETLKSRERETEELYQVIEGQNDTMAKLREMLHQSQLGQLHSSEGTSPAQQQVALLDLQSALFCSQLEIQKLQRVVRQKERQLADAKQCVQFVEAAAHESEQQKEASWKHNQELRKALQQLQEELQNKSQQLRAWEAEKYNEIRTQEQNIQHLNHSLSHKEQLLQEFRELLQYRDNSDKTLEANEMLLEKLRQRIHDKAVALERAIDEKFSALEEKEKELRQLRLAVRERDHDLERLRDVLSSNEATMQSMESLLRAKGLEVEQLSTTCQNLQWLKEEMETKFSRWQKEQESIIQQLQTSLHDRNKEVEDLSATLLCKLGPGQSEIAEELCQRLQRKERMLQDLLSDRNKQVLEHEMEIQGLLQSVSTREQESQAAAEKLVQALMERNSELQALRQYLGGRDSLMSQAPISNQQAEVTPTGRLGKQTDQGSMQIPSRDDSTSLTAKEDVSIPRSTLGDLDTVAGLEKELSNAKEELELMAKKERESQMELSALQSMMAVQEEELQVQAADMESLTRNIQIKEDLIKDLQMQLVDPEDIPAMERLTQEVLLLREKVASVESQGQEISGNRRQQLLLMLEGLVDERSRLNEALQAERQLYSSLVKFHAHPESSERDRTLQVELEGAQVLRSRLEEVLGRSLERLNRLETLAAIGGGELESVRIHHKHAY
# notes: not shown: FLAG tag
# B2: FLAG-tagged full-length MMG8(L311A/P312A) (other)
# chain: MKEICRICARELCGNQRRWIFHTASKLNLQVLLSHVLGKDVPRDGKAEFACSKCAFMLDRIYRFDTVIARIEALSIERLQKLLLEKDRLKFCIASMYRKNNDDSGAEIKAGNGTVDMSVLPDARYSALLQEDFAYSGFECWVENEDQIQEPHSCHGSEGPGNRPRRCRGCAALRVADSDYEAICKVPRKVARSISCGPSSRWSTSICTEEPALSEVGPPDLASTKVPPDGESMEEETPGSSVESLDASVQASPPQQKDEETERSAKELGKCDCCSDDQAPQHGCNHKLELALSMIKGLDYKPIQSPRGSRAAIPVKSSLPGAKPGPSMTDGVSSGFLNRSLKPLYKTPVSYPLELSDLQELWDDLCEDYLPLRVQPMTEELLKQQKLNSHETTITQQSVSDSHLAELQEKIQQTEATNKILQEKLNEMSYELKCAQESSQKQDGTIQNLKETLKSRERETEELYQVIEGQNDTMAKLREMLHQSQLGQLHSSEGTSPAQQQVALLDLQSALFCSQLEIQKLQRVVRQKERQLADAKQCVQFVEAAAHESEQQKEASWKHNQELRKALQQLQEELQNKSQQLRAWEAEKYNEIRTQEQNIQHLNHSLSHKEQLLQEFRELLQYRDNSDKTLEANEMLLEKLRQRIHDKAVALERAIDEKFSALEEKEKELRQLRLAVRERDHDLERLRDVLSSNEATMQSMESLLRAKGLEVEQLSTTCQNLQWLKEEMETKFSRWQKEQESIIQQLQTSLHDRNKEVEDLSATLLCKLGPGQSEIAEELCQRLQRKERMLQDLLSDRNKQVLEHEMEIQGLLQSVSTREQESQAAAEKLVQALMERNSELQALRQYLGGRDSLMSQAPISNQQAEVTPTGRLGKQTDQGSMQIPSRDDSTSLTAKEDVSIPRSTLGDLDTVAGLEKELSNAKEELELMAKKERESQMELSALQSMMAVQEEELQVQAADMESLTRNIQIKEDLIKDLQMQLVDPEDIPAMERLTQEVLLLREKVASVESQGQEISGNRRQQLLLMLEGLVDERSRLNEALQAERQLYSSLVKFHAHPESSERDRTLQVELEGAQVLRSRLEEVLGRSLERLNRLETLAAIGGGELESVRIHHKHAY
# notes: also called L311A/P312A mutant; not shown: FLAG tag
# B3: FLAG-tagged MMG8 fragment 1-389 (L311A/P312A) (other)
# chain: MKEICRICARELCGNQRRWIFHTASKLNLQVLLSHVLGKDVPRDGKAEFACSKCAFMLDRIYRFDTVIARIEALSIERLQKLLLEKDRLKFCIASMYRKNNDDSGAEIKAGNGTVDMSVLPDARYSALLQEDFAYSGFECWVENEDQIQEPHSCHGSEGPGNRPRRCRGCAALRVADSDYEAICKVPRKVARSISCGPSSRWSTSICTEEPALSEVGPPDLASTKVPPDGESMEEETPGSSVESLDASVQASPPQQKDEETERSAKELGKCDCCSDDQAPQHGCNHKLELALSMIKGLDYKPIQSPRGSRAAIPVKSSLPGAKPGPSMTDGVSSGFLNRSLKPLYKTPVSYPLELSDLQELWDDLCEDYLPLRVQPMTEELLKQQKLNS
# notes: not shown: FLAG tag
# Assays:
# [1] = molecular target: T1, AKAP450 (UniProt Q99996 1-3907, limits assumed); assay: anti-FLAG co-immunoprecipitation from HEK293T, immunoblot
# T1 construct: Endogenous protein detected by immunoblot; also called AKAP350; CG-NAP
# T1 sequence (Q99996 whole entry): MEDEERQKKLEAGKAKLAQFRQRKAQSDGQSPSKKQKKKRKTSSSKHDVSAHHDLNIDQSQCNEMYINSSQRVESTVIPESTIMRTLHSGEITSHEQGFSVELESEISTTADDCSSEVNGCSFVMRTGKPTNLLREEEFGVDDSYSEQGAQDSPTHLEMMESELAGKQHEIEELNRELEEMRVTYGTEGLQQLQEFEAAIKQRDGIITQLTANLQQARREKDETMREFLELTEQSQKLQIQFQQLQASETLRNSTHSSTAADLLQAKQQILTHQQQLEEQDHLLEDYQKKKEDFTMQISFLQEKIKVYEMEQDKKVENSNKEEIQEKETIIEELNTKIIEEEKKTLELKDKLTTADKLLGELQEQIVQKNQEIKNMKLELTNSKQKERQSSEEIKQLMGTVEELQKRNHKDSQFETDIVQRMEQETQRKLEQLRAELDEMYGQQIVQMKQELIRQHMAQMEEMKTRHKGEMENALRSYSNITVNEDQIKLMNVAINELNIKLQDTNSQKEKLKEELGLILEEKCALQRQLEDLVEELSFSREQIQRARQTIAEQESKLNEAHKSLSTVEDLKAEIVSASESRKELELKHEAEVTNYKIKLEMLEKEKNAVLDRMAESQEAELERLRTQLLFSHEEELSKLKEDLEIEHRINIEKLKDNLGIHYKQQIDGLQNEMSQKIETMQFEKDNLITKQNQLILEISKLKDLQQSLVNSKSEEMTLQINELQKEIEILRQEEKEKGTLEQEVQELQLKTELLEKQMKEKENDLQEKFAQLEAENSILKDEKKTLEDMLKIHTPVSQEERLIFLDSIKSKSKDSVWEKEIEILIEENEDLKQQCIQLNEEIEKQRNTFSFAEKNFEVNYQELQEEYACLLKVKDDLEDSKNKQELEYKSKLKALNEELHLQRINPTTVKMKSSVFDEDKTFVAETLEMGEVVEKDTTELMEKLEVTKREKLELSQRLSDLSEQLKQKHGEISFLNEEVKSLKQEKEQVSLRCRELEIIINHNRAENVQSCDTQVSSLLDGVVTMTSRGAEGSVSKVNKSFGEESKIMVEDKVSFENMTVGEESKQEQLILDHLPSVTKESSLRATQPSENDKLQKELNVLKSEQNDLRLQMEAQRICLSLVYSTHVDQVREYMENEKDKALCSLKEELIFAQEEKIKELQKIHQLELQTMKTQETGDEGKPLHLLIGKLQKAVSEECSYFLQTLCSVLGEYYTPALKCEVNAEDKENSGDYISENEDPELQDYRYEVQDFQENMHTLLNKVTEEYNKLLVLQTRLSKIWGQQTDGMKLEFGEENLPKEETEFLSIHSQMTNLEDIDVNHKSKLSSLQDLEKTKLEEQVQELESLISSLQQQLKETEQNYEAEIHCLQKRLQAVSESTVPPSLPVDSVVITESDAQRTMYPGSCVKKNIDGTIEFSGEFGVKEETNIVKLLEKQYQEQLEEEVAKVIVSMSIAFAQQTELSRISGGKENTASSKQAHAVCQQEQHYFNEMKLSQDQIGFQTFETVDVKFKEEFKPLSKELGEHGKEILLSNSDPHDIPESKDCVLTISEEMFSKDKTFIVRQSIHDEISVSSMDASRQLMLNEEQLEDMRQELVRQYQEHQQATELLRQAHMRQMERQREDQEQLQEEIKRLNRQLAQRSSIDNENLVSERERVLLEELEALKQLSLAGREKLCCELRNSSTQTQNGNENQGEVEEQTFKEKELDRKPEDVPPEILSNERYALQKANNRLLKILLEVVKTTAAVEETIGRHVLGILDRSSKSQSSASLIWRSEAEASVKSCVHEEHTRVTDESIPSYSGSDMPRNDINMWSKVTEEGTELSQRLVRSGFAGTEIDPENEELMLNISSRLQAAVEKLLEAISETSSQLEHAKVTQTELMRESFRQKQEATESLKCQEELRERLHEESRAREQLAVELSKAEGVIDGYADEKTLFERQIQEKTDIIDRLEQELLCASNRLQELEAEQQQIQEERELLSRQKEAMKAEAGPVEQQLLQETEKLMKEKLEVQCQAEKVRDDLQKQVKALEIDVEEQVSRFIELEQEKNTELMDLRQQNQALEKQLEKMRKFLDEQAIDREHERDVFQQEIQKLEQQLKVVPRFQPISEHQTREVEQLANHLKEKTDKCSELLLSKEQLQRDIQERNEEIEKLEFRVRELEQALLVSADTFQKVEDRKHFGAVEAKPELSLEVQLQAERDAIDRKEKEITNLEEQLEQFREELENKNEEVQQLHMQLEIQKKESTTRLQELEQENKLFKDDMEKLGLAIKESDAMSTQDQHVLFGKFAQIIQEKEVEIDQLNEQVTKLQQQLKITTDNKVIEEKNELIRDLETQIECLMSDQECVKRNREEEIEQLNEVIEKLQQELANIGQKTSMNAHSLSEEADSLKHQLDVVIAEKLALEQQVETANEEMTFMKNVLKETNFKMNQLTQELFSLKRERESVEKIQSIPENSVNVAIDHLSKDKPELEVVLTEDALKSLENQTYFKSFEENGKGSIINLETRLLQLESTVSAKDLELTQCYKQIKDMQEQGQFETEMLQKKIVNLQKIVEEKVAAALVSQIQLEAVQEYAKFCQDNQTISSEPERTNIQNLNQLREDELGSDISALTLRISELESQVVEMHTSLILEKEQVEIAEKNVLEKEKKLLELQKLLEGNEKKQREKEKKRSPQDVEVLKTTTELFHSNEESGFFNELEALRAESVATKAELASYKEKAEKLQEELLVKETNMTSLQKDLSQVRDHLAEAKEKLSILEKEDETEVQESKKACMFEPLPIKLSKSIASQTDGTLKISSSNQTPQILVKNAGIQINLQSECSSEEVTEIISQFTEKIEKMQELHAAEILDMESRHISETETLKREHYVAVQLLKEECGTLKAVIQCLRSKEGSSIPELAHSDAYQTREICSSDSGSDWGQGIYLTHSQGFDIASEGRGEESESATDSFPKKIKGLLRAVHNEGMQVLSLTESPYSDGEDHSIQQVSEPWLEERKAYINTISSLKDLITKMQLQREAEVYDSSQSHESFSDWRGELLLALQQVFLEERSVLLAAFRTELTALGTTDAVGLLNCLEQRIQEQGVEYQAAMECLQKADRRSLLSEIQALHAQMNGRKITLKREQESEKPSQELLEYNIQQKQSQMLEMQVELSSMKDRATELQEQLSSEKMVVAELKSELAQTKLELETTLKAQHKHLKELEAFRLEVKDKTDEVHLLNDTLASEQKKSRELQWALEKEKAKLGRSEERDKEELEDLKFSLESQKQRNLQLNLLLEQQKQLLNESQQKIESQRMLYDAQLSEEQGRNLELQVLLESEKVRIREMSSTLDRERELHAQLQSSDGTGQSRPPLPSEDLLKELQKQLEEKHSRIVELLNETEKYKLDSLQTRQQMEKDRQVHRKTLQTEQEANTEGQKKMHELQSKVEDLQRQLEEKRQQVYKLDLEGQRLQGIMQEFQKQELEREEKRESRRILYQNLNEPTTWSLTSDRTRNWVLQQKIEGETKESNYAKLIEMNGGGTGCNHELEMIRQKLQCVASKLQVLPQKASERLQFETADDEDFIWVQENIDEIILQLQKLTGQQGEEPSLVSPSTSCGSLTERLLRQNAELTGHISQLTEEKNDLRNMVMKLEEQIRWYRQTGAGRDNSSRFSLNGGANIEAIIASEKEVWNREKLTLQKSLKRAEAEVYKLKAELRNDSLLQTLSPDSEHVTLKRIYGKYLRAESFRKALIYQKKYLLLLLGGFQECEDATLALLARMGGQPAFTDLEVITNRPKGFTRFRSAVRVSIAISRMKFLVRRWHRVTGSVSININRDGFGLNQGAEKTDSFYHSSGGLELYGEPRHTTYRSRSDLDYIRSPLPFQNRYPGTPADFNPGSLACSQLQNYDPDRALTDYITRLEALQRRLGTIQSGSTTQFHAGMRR
# Experimental: The immunoprecipitated proteins and inputs were analyzed by immunoblotting and quantified. […] Data shown are means±S.D. from three independent experiments. […] The arrow indicates a transfected cell. Boxed areas are enlarged. Scale bars, 5 μm.
# (§1) Anti-FLAG immunoprecipitation was performed using anti-FLAG-coupled beads (M2, Sigma) in cell extracts prepared with a lysis buffer (20 mM Tris-HCl, pH7.4, 150 mM NaCl, 1 mM EDTA, 1% Triton X-100, 1 mM dithiothreitol, and the Protease Inhibitor Cocktail). Immunoprecipitated proteins were detected by immunoblotting.
# [2] = molecular target: T2, EB1 (UniProt Q15691 2-268); assay: anti-FLAG co-immunoprecipitation, immunoblot
# T2 construct: Endogenous protein detected by immunoblot or mass spectrometry; also called endogenous EB1
# T2 sequence (looked up): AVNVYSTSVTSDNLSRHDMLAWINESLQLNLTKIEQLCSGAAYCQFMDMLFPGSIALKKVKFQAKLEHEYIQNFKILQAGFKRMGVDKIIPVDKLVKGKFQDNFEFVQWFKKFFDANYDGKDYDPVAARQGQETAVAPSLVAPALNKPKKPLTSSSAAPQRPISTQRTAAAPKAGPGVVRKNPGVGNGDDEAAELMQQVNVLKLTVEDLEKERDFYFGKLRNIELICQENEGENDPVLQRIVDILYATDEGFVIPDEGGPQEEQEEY
# Experimental: (§2) After anti-FLAG immunoprecipitation, the immunoprecipitates and inputs were probed on immunoblots. […] Scale bars, 5 μm.
# as §1
# [3] = molecular target: T3, GFP-EB3 (UniProt Q9UPY8 1-281); assay: anti-FLAG co-immunoprecipitation from HEK293T, anti-GFP immunoblot
# T3 construct: not shown: GFP tag
# T3 sequence (Q9UPY8 whole entry): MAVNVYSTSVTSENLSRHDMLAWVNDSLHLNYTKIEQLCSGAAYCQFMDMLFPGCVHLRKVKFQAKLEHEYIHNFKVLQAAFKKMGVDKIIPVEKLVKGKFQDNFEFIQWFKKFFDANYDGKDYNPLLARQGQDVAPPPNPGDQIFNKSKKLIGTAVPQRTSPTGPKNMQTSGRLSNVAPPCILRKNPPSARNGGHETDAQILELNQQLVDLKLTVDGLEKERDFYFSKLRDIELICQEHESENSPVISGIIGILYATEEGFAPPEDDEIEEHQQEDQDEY
# Experimental: as §2, §1
Binder,binding result [1],binding result [2],binding result [3]
B1,no binding,–,–
B2,–,no binding,no binding
B3,–,no binding,–
